{"source": "paper PMC9468356", "about": "“Kinetic compartmentalization by unnatural reaction for itaconate production” (Nature Communications, 2022)", "proteins": {"B1": {"name": "PrpD (Escherichia coli K-12; G111T/W110V) (protein)", "chain": "SAQINNIRPEFDREIVDIVDYVMNYEISSKVAYDTAHYCLLDTLGCGLEALEYPACKKLLGPIVPGTVVPNGVRVPGTQFQLDPVQAAFNIGAMIRWLDFNDTWLAAEVTHPSDNLGGILATADWLSRNAVASGKAPLTMKQVLTAMIKAHEIQGCIALENSFNRVGLDHVLLVKVASTAVVAEMLGLTREEILNAVSLAWVDGQSLRTYRHAPNTGTRKSWAAGDATSRAVRLALMAKTGEMGYPSALTAPVWGFYDVSFKGESFRFQRPYGSYVMENVLFKISFPAEFHSQTAVEAAMTLYEQMQAAGKTAADIEKVTIRTHEACIRIIDKKGPLNNPADRDHCIQYMVAIPLLFGRLTAADYEDNVAQDKRIDALREKINCFEDPAFTADYHDPEKRAIANAITLEFTDGTRFEEVVVEYPIGHARRRQDGIPKLVDKFKINLARQFPTRQQQRILEVSLDRARLEQMPVNEYLDLYVI", "notes": "6xHis-tagged, cloned from E. coli W into pACYCduet-1, purified anaerobically by His-tag kit"}, "B2": {"name": "PrpD (Escherichia coli K-12; I331L/W110V) (protein)", "chain": "B1 chain with T110G, I330L", "notes": "as for B1"}, "B3": {"name": "PrpD (Escherichia coli K-12) (protein)", "chain": "B1 chain with V109W, T110G", "notes": "as for B1"}, "B4": {"name": "PrpD (Escherichia coli K-12; G111T/I331L/W110V) (protein)", "chain": "B1 chain with I330L", "notes": "as for B1"}}, "note": "Where a chain is given by its changes, count along the chain named. Names and notes keep the numbering of the source.", "data": [{"substrate": "CC(C(=O)O)C(O)(CC(=O)O)C(=O)O", "test": "HPLC end-point assay", "type": "biochemical, Escherichia coli", "conditions": "2 mM Tris-HCl, 37 °C, 10 min, 0.1-1 mM substrate", "excerpt": "(§1) HPLC end-point assay on PrpD", "units": {"Km": "µM", "kcat": "s⁻¹", "kcat/Km": "M⁻¹ s⁻¹"}, "values": [{"protein": "B1", "Km": "1930 ± 210", "kcat": "0.023 ± 0.008", "kcat/Km": "12 ± 6"}, {"protein": "B2", "Km": "1720 ± 540", "kcat": "0.035 ± 0.009", "kcat/Km": "21 ± 2"}, {"protein": "B3", "Km": "960 ± 850", "kcat": "0.045 ± 0.025", "kcat/Km": "75 ± 54"}, {"protein": "B4", "Km": "1960 ± 210", "kcat": "0.024 ± 0.008", "kcat/Km": "13 ± 5"}]}, {"substrate": "O=C(O)/C=C(/CC(=O)O)C(=O)O", "test": "HPLC end-point assay", "type": "biochemical, Escherichia coli", "conditions": "2 mM Tris-HCl, 37 °C, 10 min, 0.05-1.0 mM substrate", "excerpt": "as §1", "units": {"Km": "µM", "kcat": "s⁻¹", "kcat/Km": "M⁻¹ s⁻¹"}, "values": [{"protein": "B1", "Km": "1720 ± 250", "kcat": "172 ± 20", "kcat/Km": "101000 ± 3180"}, {"protein": "B2", "Km": "1520 ± 80", "kcat": "96.3 ± 4.55", "kcat/Km": "63600 ± 3330"}, {"protein": "B3", "Km": "700 ± 100", "kcat": "119 ± 13.4", "kcat/Km": "171000 ± 5650"}, {"protein": "B4", "Km": "720 ± 100", "kcat": "81.8 ± 14.1", "kcat/Km": "114000 ± 14600"}]}]}
